Among the data in publication PMC6778148 (2019) are koff, Kd and Ki values, retold here.

Test [1] deals with T1, PSD-95-12, purified tandem PDZ domains of PSD-95 (rat, UniProt P31016 61-249). Kind of test: SPR. In general terms: Surface plasmon resonance follows binding to a sensor surface in real time, without labels.
In test [2] the target is T1, PSD-95-12, purified tandem PDZ domains …. Kind of test: ITC.
For test [3] the target is unchanged.
In test [4] the target is SAP97-12, purified tandem PDZ domains of SAP97 (rat, UniProt Q62696 220-408). Kind of test: competition against divalent ligand.
For test [5], the target named is T2, SAP102-12, purified tandem PDZ domains of SAP102 (rat, UniProt Q62936 145-333).
T2 chain: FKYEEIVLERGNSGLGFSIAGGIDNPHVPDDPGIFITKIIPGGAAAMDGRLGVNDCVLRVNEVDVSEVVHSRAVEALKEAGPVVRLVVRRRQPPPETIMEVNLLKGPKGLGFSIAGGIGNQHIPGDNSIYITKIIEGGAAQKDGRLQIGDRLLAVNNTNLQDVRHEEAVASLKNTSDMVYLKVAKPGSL
The experiment in a line: competition against divalent ligand.

For test [6], the target named is PSD-93-12, purified tandem PDZ domains of PSD-93 (rat, UniProt Q63622 93-282). Kind of test: competition against divalent ligand.
Chain of PSD-93-12, purified tandem PDZ domains of PSD-93 (Q63622 93-282): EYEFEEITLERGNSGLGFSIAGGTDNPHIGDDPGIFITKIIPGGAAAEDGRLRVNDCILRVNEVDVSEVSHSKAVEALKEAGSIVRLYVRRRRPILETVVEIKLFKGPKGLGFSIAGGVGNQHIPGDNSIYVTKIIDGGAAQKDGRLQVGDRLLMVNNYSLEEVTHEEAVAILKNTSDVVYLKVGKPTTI

T1 sequence (P31016 61-249): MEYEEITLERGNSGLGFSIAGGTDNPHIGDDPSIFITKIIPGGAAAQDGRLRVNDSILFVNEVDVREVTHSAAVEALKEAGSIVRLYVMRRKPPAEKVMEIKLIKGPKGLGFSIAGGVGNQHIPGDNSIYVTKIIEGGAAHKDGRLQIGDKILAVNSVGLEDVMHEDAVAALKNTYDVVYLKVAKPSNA
Chain of SAP97-12, purified tandem PDZ domains of SAP97 (Q62696 220-408): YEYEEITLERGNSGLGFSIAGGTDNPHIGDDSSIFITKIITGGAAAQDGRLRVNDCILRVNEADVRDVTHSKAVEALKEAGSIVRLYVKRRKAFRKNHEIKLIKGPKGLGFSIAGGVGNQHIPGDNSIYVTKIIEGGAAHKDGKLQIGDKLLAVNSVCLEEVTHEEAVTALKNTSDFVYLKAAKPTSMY

B1: biotinylated Xph20 (designed binder)
chain: SSVSSVPTKLEVVAATPTSLLISWDAVAKNVKVGYYRITYGETGGNSPVQEFTVPGSSSTATISGLKPGVDYTITVYANGVLSKMVLPISINYRT
modifications: biotin on the biotin acceptor peptide
What is called koff is the first-order rate constant of dissociation. Consider B1, for which the koff in test [1] was 0.068 s⁻¹.

B2: Xph18, evolved ^10FN3 domain (recombinant) (designed binder)
chain: SSVSSVPTKLEVVAATPTSLLISWDAHSRMAWVNYYRITYGETGGNSPVQEFTVPGSSSTATISGLSPGVDYTITVYANGGGFRRGMAPISINYRT
A word on the Kd: it is the free concentration of one partner at which half of the binding sites on the other are occupied at equilibrium, for simple one-to-one binding. In test [2], B2 returned a dissociation constant (Kd) of 820 nM.

B3: Xph20-ETWV (designed binder)
chain: MASHHHHHHHHHHENLYFQSGSGSSVSSVPTKLEVVAATPTSLLISWDAVAKNVKVGYYRITYGETGGNSPVQEFTVPGSSSTATISGLKPGVDYTITVYANGVLSKMVLPISINYRTLEGGSGGSGGSGGSGGSGGSGGSGGSGGSGGSGGSGGSGTETWV
In general, Ki refers to the equilibrium dissociation constant of an inhibitor or competing ligand from its target. A high value points to a looser hold on the target. In the case of B3, the Ki in test [3] turned out to be 36 nM; in test [4] it was 900 nM; in test [5], 1440 nM; in test [6] it was 261 nM.

B4: Xph15, evolved ^10FN3 domain (recombinant) (designed binder)
chain: SSVSSVPTKLEVVAATPTSLLISWDAGPRNVSYYRITYGETGGNSPVQEFTVPGSSSTATISGLSPGVDYTITVYASGHVSTLMTPISINYRT
On to B4, for which binding in test [2] was put at a Kd of 2200 nM.
